Experimental data reported in patent US20120244578A1 (Amgen, published 2012).

Key:
[1] = target: T1, human FcRn (human, UniProt P55899 24-297; P61769 21-119, limits assumed); experiment: BIAcore solution competition (FIG. 6)
T1 construct: also called neonatal Fc-receptor
Experimental: (§1) BIAcore analysis of human and mouse FcRn binding to Fc mutant #1 (Fc K392D-K409D, dimer), #2 (Fc K392D-K409D-Y349T, monomeric SEC profile) and #6 (Fc K392D-K409D-Y349T, monomeric SEC profile) using a BIAcore3000 instrument. CHO cell produced huFc was immobilized on follow cell 2 (Fc2) on a CM5 chip. Fc1 was used as background control. 2 nM human FcRn were incubated with 1, 10, 100 nM of indicated Fc variants for one hour before injected to the CHO huFc surface. Reduced binding of FcRn to the immobilized CHO huFc indicates binding of FcRn to the Fc variants in solution. 2 nM mouse FcRn were incubated with 0.1, 1, 10 nM of Fc variants for one hour before injected to the CHO huFc surface.

[2] = target: T2, mouse FcRn (mouse, UniProt Q61559 22-297; P01887 21-119, limits assumed); experiment: BIAcore solution competition (FIG. 6)
T2 sequence (looked up): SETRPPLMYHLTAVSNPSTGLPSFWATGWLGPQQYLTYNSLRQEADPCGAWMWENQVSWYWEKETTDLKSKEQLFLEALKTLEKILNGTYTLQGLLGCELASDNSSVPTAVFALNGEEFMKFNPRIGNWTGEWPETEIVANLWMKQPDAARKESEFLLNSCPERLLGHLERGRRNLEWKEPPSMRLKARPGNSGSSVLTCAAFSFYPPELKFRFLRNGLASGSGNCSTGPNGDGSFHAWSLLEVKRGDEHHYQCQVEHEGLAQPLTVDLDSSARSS
T2 sequence (b2m, looked up): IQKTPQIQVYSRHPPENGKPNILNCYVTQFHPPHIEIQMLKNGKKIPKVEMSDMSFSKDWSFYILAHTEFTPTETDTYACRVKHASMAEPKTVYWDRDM
Experimental: as §1

- binding result [1]: binds
- binding result [2]: binds
B1: hu IgG1 Fc K392D K409D Y349T (construct 2 of Table 2) (other, human, UniProt P01857-1 114-330, looked up, name in EU numbering)
chain: APELLGGPSVFLFPPKPKDTLMISRTPEVTCVVVDVSHEDPEVKFNWYVDGVEVHNAKTKPREEQYNSTYRVVSVLTVLHQDWLNGKEYKCKVSNKALPAPIEKTISKAKGQPREPQVTTLPPSRDELTKNQVSLTCLVKGFYPSDIAVEWESNGQPENNYDTTPPVLDSDGSFFLYSDLTVDKSRWQQGNVFSCSVMHEALHNHYTQKSLSLSPGK
notes: domain: Fc; Monomer by SEC and AUC; also called Fc mutant #2; Monomer Fc
